According to PMC3690555 (Biochemistry, 2009):

How the values were obtained:
[1] = target: D3A-NiSOD (Streptomyces coelicolor); experiment: SEC + native MS
[2] = target: D3A-NiSOD (Streptomyces coelicolor); experiment: crystal structure
[3] = target: Y9F-NiSOD (Streptomyces coelicolor); experiment: SEC + native MS
[4] = target: Y9F-NiSOD (Streptomyces coelicolor); experiment: crystal structure
[5] = target: Y9FY62F-NiSOD (Streptomyces coelicolor); experiment: SEC + native MS
[6] = target: Y62F-NiSOD (Streptomyces coelicolor); experiment: SEC + native MS
SEC + native MS = target: the molecule itself; experiment: SEC + native MS

Q: Which stoichiometry N [1] does the source give for D3A-NiSOD (enzyme) here?
A: 6

Q: What about the stoichiometry N [2] of the same molecule?
A: 6

Q: What does the source list for Y9F-NiSOD (enzyme)?
A: stoichiometry N [3]: 6; stoichiometry N [4]: 6

Q: Which stoichiometry N [5] does the source give for Y9FY62F-NiSOD (enzyme) here?
A: 6

Q: For Y62F-NiSOD (enzyme), which stoichiometry N [6] is on record?
A: 6

B1: WT-NiSOD, recombinant nickel-dependent superoxide dismutase from Streptomyces coelicolor (enzyme, UniProt P80735 15-131, looked up)
chain: HCDLPCGVYDPAQARIEAESVKAVQEKMAGNDDPHFQTRATVIKEQRAELAKHHVSVLWSDYFKPPHFEKYPELHQLVNDTLKALSAAKGSKDPATGQKALDYIAQIDKIFWETKKA
Q: How did the “stoichiometry N” value (SEC + native MS) turn out when B1 was run?
A: 6
